doi:10.1101/2023.10.12.561995 (bioRxiv, 2023)

Molecular target: S-protein of WT SARS-CoV-2 (S-trimer) used in BLI (SARS-CoV-2 wildtype, UniProt P0DTC2, stabilised)
Experiment: BLI

B1: R1-26 (mAb, human IgG1) (antibody, V domains shown)
VH: EVQLVESGGGLVQPGGSLRLSCAASGFTFSSYWMSWVRQAPGKGLEWVANIKQDGSEKYYVDSVKGRFTISRDNAKNSLYLQMNSLRAEDTAVYYCARGQLGPWVGVDYWGQGTLVTVSS
VL: NFMLTQPHSVSESPGKTVTISCTGSSGSIASNYVQWYQQRPGSAPTTVIYEDNQRPSGVPDRFSGSIDSSSNSASLTISGLKTEDEADYYCQSYDSSNWVFGGGTQLTVL
  binding result: binds
